This passage reports %Blocking results from patent publication US20250313625A1.

The target of assay [1] is mFc tagged human LAG3 ECD recombinant protein (human) (UniProt P18627). The experiment in a line: competitive FACS: mFc tagged human LAG3 ECD binding to MHC II on Raji cells.
The target is the same in assay [2]. In words: competitive ELISA: mFc tagged human LAG3 ECD binding to plate coated LSECtin ECD. Background: In an ELISA, binding on a coated surface is turned into a signal by an enzyme label.
Assay [3] has the same target. In words: competitive FACS: mFc tagged human LAG3 ECD binding to MHC II on Raji cells. This is another data set of the same source.

Read-outs that look alike come from different tables or passages of the source.

Sequence of mFc tagged human LAG3 ECD recombinant protein (human) (P18627 23-450): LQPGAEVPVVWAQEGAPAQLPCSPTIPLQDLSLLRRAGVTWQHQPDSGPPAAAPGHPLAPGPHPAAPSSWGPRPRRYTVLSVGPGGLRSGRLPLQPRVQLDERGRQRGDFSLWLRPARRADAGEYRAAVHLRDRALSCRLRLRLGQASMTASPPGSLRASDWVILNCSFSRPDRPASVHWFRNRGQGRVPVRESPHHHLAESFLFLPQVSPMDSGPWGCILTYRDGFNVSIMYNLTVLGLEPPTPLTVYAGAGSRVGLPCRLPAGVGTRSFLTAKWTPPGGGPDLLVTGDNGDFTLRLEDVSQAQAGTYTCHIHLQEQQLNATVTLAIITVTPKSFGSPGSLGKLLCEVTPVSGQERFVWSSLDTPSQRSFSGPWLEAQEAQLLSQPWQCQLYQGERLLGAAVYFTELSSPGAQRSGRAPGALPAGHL

Turning to hIgG4 (antibody), in assay [1], the %Blocking at 2 nM amounted to 5.7% and the %Blocking at 8 nM was 3.4%. In addition, in assay [2], the %Blocking at 4 nM was found to be 1.3%, the %Blocking at 20 nM amounted to 5.6% and the %Blocking at 100 nM came out at 7.4%. The %Blocking at 8 nM in assay [3] came to 10.9%.
